For orientation: Kd means the concentration at which binding is half-saturated.

Numbering of substitutions follows the chain as printed. Where two headings read alike, the source gives them in different places.

This note sets out measurements from publication PMC7840946 (2021).

Assay [1] deals with T1, PstS1 (Rv0934), recombinant, wild type (Mycobacterium tuberculosis, UniProt P9WGU1). The assay can be described thus: SPR. (In general: In SPR one partner is held on a chip, and binding of the other changes the refractive index at the surface.)
In assay [2] the target is T1, PstS1 (Rv0934), recombinant, wild type. The assay can be described thus: SPR. The source holds these as a separate data set.

T1 sequence (P9WGU1 25-374): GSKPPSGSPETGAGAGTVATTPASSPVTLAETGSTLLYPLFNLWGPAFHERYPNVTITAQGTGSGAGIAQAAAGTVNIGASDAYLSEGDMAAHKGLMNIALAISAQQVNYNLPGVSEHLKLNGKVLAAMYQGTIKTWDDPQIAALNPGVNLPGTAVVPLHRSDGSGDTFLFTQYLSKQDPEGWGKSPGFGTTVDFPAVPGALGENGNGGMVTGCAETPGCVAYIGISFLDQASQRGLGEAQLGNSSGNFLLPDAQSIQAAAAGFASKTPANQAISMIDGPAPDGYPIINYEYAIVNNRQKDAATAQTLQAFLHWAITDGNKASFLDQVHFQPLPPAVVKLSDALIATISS

B1: p4-36gl, predicted germline version of mAb p4-36 (antibody, V domains shown)
VH: EVQLVESGGGLVQPGRSLRLSCTASGFTFGDYAMSWVRQAPGKGLEWVGFIRSKAYGGTTEYAASVKGRFTISRDDSKSIAYLQMNSLKTEDTAVYYCTGPRPYYDSSGYYPYYFDYWGQGTLVTVSS
VL: QSALTQPRSVSGSPGQSVTISCTGTSSDVGGYNYVSWYQQHPGKAPKLMIYDVSKRPSGVPDRFSGSKSGNTASLTISGLQAEDEADYYCCSYAGSYTYVVFGGGTKLTVL
B1: in assay [1], the dissociation constant (Kd) stood at 6.85 nM.

B2: mAb p4-163 (human IgG1) (antibody, V domains shown)
VH: EVQLVESGGGLVKPGGSLRLSCAASGFTFESHRMHWVRQAPGKGLEWVSSIISSRTYIYYADSVKGRFTISRDNSRNSLFLQMNSLRAEDTAVYYCARGDYYYDGVASDPHFDNWGQGTLVTVSS
VL: QSVLTQPPSASGTPGQRVTISCSGGRSNIGSNYVYWFQQLPGTAPQLLIYRNIQRPSGVPARFSGSKSGTSASLAISGLRSEDEADYYCATWDDSLSGVVFGGGTKVTVL
Regarding B2, the Kd in assay [2] came to 4.45 nM.

B3: mAb p4-170 (human IgG1) (antibody, V domains shown)
VH: B2 VH with E30S, R76G, A88V
VL: B2 VL with P7T, G25S, L40F, T43A, G69D, D86H, T91A
For the molecule B3, in assay [2], the Kd turned out to be 1.34 nM.
